In the supplement of paper PMC10724198:
± gives the standard deviation of the averaged measurements.

Tested on: Saccharomyces cerevisiae
Assay: protein stability index of tFT-peptide fusion (C-terminal peptide) (PSI (0-1 scale)); higher = more stable (slower turnover)
Details: temperature: 30 C
Description: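 MPS profiling in S. cerevisiae of the yeast C-terminome library: the last 12 aa of each annotated ORF are fused to the C-terminus of a sfGFP-mCherry timer, after a GGGS linker. Cells are FACS-sorted into 8 mCherry/sfGFP bins and deep-sequenced. PSI runs from 0 (unstable) to 1 (stable); wild type and das1Δ backgrounds, two technical replicates each.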

[1] = genetic background: das1 deletion

Row | Sequence | protein stability index [1] | protein stability index (genetic background: wild type)
1 | IAVNYCMFGRSY [YHR020W C-terminal 12 aa] | 0.685 ± 0.022 | 0.73 ± 0.061
2 | ICFREFFDRVET [YJL077W-B C-terminal 12 aa] | 0.714 ± 0.056 | 0.6732 ± 0.0058
3 | IDFLVEEATLNE [YAP3 C-terminal 12 aa] | 0.70065 ± 9.1e-05 | 0.673 ± 0.032
4 | IEAATQAFLDSQ [WIP1 C-terminal 12 aa] | 0.698 ± 0.013 | 0.715 ± 0.051
5 | IERLFKEEEYYS [TCD1 C-terminal 12 aa] | 0.70198 ± 0.00056 | 0.703 ± 0.011
6 | IGIGFGVGIIRE [BUD9 C-terminal 12 aa] | 0.698 ± 0.052 | 0.686 ± 0.036
7 | IIQDNISPRLVV [RRP46 C-terminal 12 aa] | 0.661 ± 0.034 | 0.665 ± 0.017
8 | IIQKETQSAGDK [PZF1 C-terminal 12 aa] | 0.661 ± 0.013 | 0.678 ± 0.024
9 | IKGKFYVKILGN [YGR115C C-terminal 12 aa] | 0.635 ± 0.036 | 0.648 ± 0.012
10 | IKIFSERCDGKV [JJJ2 C-terminal 12 aa] | 0.7066 ± 0.002 | 0.683 ± 0.0069
11 | IKLLKTHNRMSL [YNL277W-A C-terminal 12 aa] | 0.6846 ± 0.0031 | 0.696 ± 0.036
12 | IKNRLNGLKYRL [YML020W C-terminal 12 aa] | 0.751 ± 0.0083 | 0.6784 ± 0.0056
13 | ILAENEIEVSRG [FET5 C-terminal 12 aa] | 0.7042 ± 0.00013 | 0.705 ± 0.0081
14 | ILERRLNEDHDC [KXD1 C-terminal 12 aa] | 0.696 ± 0.025 | 0.6885 ± 0.0056
15 | ILILFTSINQRG [YOR366W C-terminal 12 aa] | 0.589 ± 0.037 | 0.605 ± 0.039
16 | ILMNEFAFNPKV [LEU3 C-terminal 12 aa] | 0.728 ± 0.027 | 0.708 ± 0.044
17 | ILTQGGHIIKKK [MNL2 C-terminal 12 aa] | 0.715 ± 0.017 | 0.6938 ± 0.0012

Row | Sequence | protein stability index [1] | protein stability index (genetic background: wild type)
18 | IMDKLRAMKNRM [GLO2 C-terminal 12 aa] | 0.689 ± 0.053 | 0.663 ± 0.032
19 | IMSTASAQFVGN [YIR018C-A C-terminal 12 aa] | 0.687 ± 0.011 | 0.664 ± 0.0089
20 | INKTLAWMDEGL [ERG26 C-terminal 12 aa] | 0.694 ± 0.013 | 0.728 ± 0.055
21 | INPMPANFAELS [FAL1 C-terminal 12 aa] | 0.721 ± 0.017 | 0.689 ± 0.049
22 | IPSIGKPKTIKI [BUD17 C-terminal 12 aa] | 0.672 ± 0.015 | 0.7017 ± 0.0033
23 | IPTSFFFFNSIV [YKL123W C-terminal 12 aa] | 0.734 ± 0.034 | 0.305 ± 0.0033
24 | IQFFSQCTSCTV [YLR286W-A C-terminal 12 aa] | 0.507 ± 0.0085 | 0.5256 ± 0.004
25 | IQYYEEILRRGL [SPP1 C-terminal 12 aa] | 0.683 ± 0.024 | 0.677 ± 0.027
26 | IRCVFMFRTNAK [YLR296W C-terminal 12 aa] | 0.578 ± 0.03 | 0.595 ± 0.018
27 | IRDAKFCDKHED [BOR1 C-terminal 12 aa] | 0.6971 ± 0.0014 | 0.671 ± 0.035
28 | IRLKRRDFMKNL [RRT12 C-terminal 12 aa] | 0.689 ± 0.0069 | 0.382 ± 0.0049
29 | ISKKYYSRYDKK [OM14 C-terminal 12 aa] | 0.683 ± 0.037 | 0.616 ± 0.025
30 | ISTLKAIYNKMD [PEX9 C-terminal 12 aa] | 0.69065 ± 0.0004 | 0.672 ± 0.009
31 | ISWLEKMKKFFH [MAM33 C-terminal 12 aa] | 0.7163 ± 0.0048 | 0.693 ± 0.009
32 | ITLAELDVGDSE [CAF130 C-terminal 12 aa] | 0.703 ± 0.03 | 0.7119 ± 0.0027
33 | ITNATFREIDDA [SEC12 C-terminal 12 aa] | 0.692 ± 0.0098 | 0.671 ± 0.03
